T1: Microfibril-associated glycoprotein 4 (human, UniProt P55083 22-255, intermolecular disulphide bond between C34 of two monomers; N-glycosylated at N87 and N137 (cryo-EM density))
T1 chain: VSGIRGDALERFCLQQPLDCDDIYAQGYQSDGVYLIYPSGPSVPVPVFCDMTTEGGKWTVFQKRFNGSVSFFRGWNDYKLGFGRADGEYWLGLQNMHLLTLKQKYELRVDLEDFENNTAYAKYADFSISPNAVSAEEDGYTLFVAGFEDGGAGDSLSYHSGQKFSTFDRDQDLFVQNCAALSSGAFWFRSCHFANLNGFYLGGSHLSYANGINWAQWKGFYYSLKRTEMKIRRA

B1: N-terminal half of LTBP4L (domain or fragment)
chain: ASPSPSPSQVVEVPGVPSRPASVAVCRCCPGQTSRRSRCIRAFCRVRSCQPKKCAGPQRCLNPVPAVPSPSPSVRKRQVSLNWQPLTLQEARALLKRRRPRGPGGRGLLRRRPPQRAPAGKAPVLCPLICHNGGVCVKPDRCLCPPDFAGKFCQLHSSGARPPAPAVPGLTRSVYTMPLANHRDDEHGVASMVSVHVEHPQEASVVVHQVERVSGPWEEADAEAVARAEAAARAEAAAPYTVLAQSAPREDGYSDASGFGYCFRELRGGECASPLPGLRTQEVCCRGAGLAWGVHDCQLCSERLGNSERVSAPDGPCPTGFERVNGSCEDVDECATGGRCQHGECANTRGGYTCVCPDGFLLDSSRSSCISQHVISEAKGPCFRVLRDGGCSLPILRNITKQICCCSRVGKAWGRGCQLCPPFGSEGFREICPAGPGYHYSASDLRYNTRPLGQEPPRVSLSQPRTLPATSRPSAGFLPTHRLEPRPEPRPDPRPGPELPLPSIPAWTGPEIPESGPSSGMCQRNPQVCGPGRCISRPSGYTCACDSGFRLSPQGTRCIDVDECRRVPPPCAPGRCENSPGSFRCVCGPGFRAGPRAAECLDVDECHRVPPPCDLGRCENTPGSFLCVCPAGYQAAPHGASCQDVDECTQSPGLCGRGACKNLPGSFRCVCPAGFRGSACEEDVDECAQEPPPCGPGRCDNTAGSFHCACPAGFRSRGPGAPCQ
B2: fibulin-5 (natural protein)
chain: QAQCTNGFDLDRQSGQCLDIDECRTIPEACRGDMMCVNQNGGYLCIPRTNPVYRGPYSNPYSTPYSGPYPAAAPPLSAPNYPTISRPLICRFGYQMDESNQCVDVDECATDSHQCNPTQICINTEGGYTCSCTDGYWLLEGQCLDIDECRYGYCQQLCANVPGSYSCTCNPGFTLNEDGRSCQDVNECATENPCVQTCVNTYGSFICRCDPGYELEEDGVHCSDMDECSFSEFLCQHECVNQPGTYFCSCPPGYILLDDNRSCQDINECEHRNHTCNLQQTCYNLQGGFKCIDPIRCEEPYLRISDNRCMCPAENPGCRDQPFTILYRDMDVVSGRSVPADIFQMQATTRYPGAYYIFQIKSGNEGREFYMRQTGPISATLVMTRPIKGPREIQLDLEMITVNTVINFRGSSVIRLRIYVSQYPF
B3: latent transforming growth factor beta binding protein-4, short isoform (natural protein)
chain: RLGERLRVRFTPVVCGLRCVHGPTGSRCTPTCAPRNATSVDSGAPGGAAPGGPGFRAFLCPLICHNGGVCVKPDRCLCPPDFAGKFCQLHSSGARPPAPAVPGLTRSVYTMPLANHRDDEHGVASMVSVHVEHPQEASVVVHQVERVSGPWEEADAEAVARAEAAARAEAAAPYTVLAQSAPREDGYSDASGFGYCFRELRGGECASPLPGLRTQEVCCRGAGLAWGVHDCQLCSERLGNSERVSAPDGPCPTGFERVNGSCEDVDECATGGRCQHGECANTRGGYTCVCPDGFLLDSSRSSCISQHVISEAKGPCFRVLRDGGCSLPILRNITKQICCCSRVGKAWGRGCQLCPPFGSEGFREICPAGPGYHYSASDLRYNTRPLGQEPPRVSLSQPRTLPATSRPSAGFLPTHRLEPRPEPRPDPRPGPELPLPSIPAWTGPEIPESGPSSGMCQRNPQVCGPGRCISRPSGYTCACDSGFRLSPQGTRCIDVDECRRVPPPCAPGRCENSPGSFRCVCGPGFRAGPRAAECLDVDECHRVPPPCDLGRCENTPGSFLCVCPAGYQAAPHGASCQDVDECTQSPGLCGRGACKNLPGSFRCVCPAGFRGSACEEDVDECAQEPPPCGPGRCDNTAGSFHCACPAGFRSRGPGAPCQDVDECARSPPPCTYGRCENTEGSFQCVCPMGFQPNTAGSECEDVDECENHLACPGQECVNSPGSFQCRTCPSGHHLHRGRCTDVDECSSGAPPCGPHGHCTNTEGSFRCSCAPGYRAPSGRPGPCADVNECLEGDFCFPHGECLNTDGSFACTCAPGYRPGPRGASCLDVDECSEEDLCQSGICTNTDGSFECICPPGHRAGPDLASCLDVDECRERGPALCGSQRCENSPGSYRCVRDCDPGYHAGPEGTCDDVDECQEYGPEICGAQRCENTPGSYRCTPACDPGYQPTPGGGCQDVDECRNRSFCGAHAVCQNLPGSFQCLCDQGYEGARDGRHCVDVNECETLQGVCGAALCENVEGSFLCVCPNSPEEFDPMTGRCVPPRTSAGTFPGSQPQAPASPVLPARPPPPPLPRRPSTPRQGPVGSGRRECYFDTAAPDACDNILARNVTWQECCCTVGEGWGSGCRIQQCPGTETAEYQSLCPHGRGYLAPSGDLSLRRDVDECQLFRDQVCKSGVCVNTAPGYSCYCSNGYYYHTQRLECIDNDECADEEPACEGGRCVNTVGSYHCTCEPPLVLDGSQRRCVSNESQSLDDNLGVCWQEVGADLVCSHPRLDRQATYTECCCLYGEAWGMDCALCPAQDSDDFEALCNVLRPPAYSPPRPGGFGLPYEYGPDLGPPYQGLPYGPELYPPPALPYDPYPPPPGPFARREAPYGAPRFDMPDFEDDGGPYGESEAPAPPGPGTRWPYRSRDTRRSFPEPEEPPEGGSYAGSLAEPYEELEAEECGILDGCTNGRCVRVPEGFTCRCFDGYRLDMTRMACVDINECDEAEAASPLCVNARCLNTDGSFRCICRPGFAPTHQPHHCAPARPRA
B4: latent transforming growth factor beta binding protein-4, long isoform (natural protein)
chain: ASPSPSPSQVVEVPGVPSRPASVAVCRCCPGQTSRRSRCIRAFCRVRSCQPKKCAGPQRCLNPVPAVPSPSPSVRKRQVSLNWQPLTLQEARALLKRRRPRGPGGRGLLRRRPPQRAPAGKAPVLCPLICHNGGVCVKPDRCLCPPDFAGKFCQLHSSGARPPAPAVPGLTRSVYTMPLANHRDDEHGVASMVSVHVEHPQEASVVVHQVERVSGPWEEADAEAVARAEAAARAEAAAPYTVLAQSAPREDGYSDASGFGYCFRELRGGECASPLPGLRTQEVCCRGAGLAWGVHDCQLCSERLGNSERVSAPDGPCPTGFERVNGSCEDVDECATGGRCQHGECANTRGGYTCVCPDGFLLDSSRSSCISQHVISEAKGPCFRVLRDGGCSLPILRNITKQICCCSRVGKAWGRGCQLCPPFGSEGFREICPAGPGYHYSASDLRYNTRPLGQEPPRVSLSQPRTLPATSRPSAGFLPTHRLEPRPEPRPDPRPGPELPLPSIPAWTGPEIPESGPSSGMCQRNPQVCGPGRCISRPSGYTCACDSGFRLSPQGTRCIDVDECRRVPPPCAPGRCENSPGSFRCVCGPGFRAGPRAAECLDVDECHRVPPPCDLGRCENTPGSFLCVCPAGYQAAPHGASCQDVDECTQSPGLCGRGACKNLPGSFRCVCPAGFRGSACEEDVDECAQEPPPCGPGRCDNTAGSFHCACPAGFRSRGPGAPCQDVDECARSPPPCTYGRCENTEGSFQCVCPMGFQPNTAGSECEDVDECENHLACPGQECVNSPGSFQCRTCPSGHHLHRGRCTDVDECSSGAPPCGPHGHCTNTEGSFRCSCAPGYRAPSGRPGPCADVNECLEGDFCFPHGECLNTDGSFACTCAPGYRPGPRGASCLDVDECSEEDLCQSGICTNTDGSFECICPPGHRAGPDLASCLDVDECRERGPALCGSQRCENSPGSYRCVRDCDPGYHAGPEGTCDDVDECQEYGPEICGAQRCENTPGSYRCTPACDPGYQPTPGGGCQDVDECRNRSFCGAHAVCQNLPGSFQCLCDQGYEGARDGRHCVDVNECETLQGVCGAALCENVEGSFLCVCPNSPEEFDPMTGRCVPPRTSAGTFPGSQPQAPASPVLPARPPPPPLPRRPSTPRQGPVGSGRRECYFDTAAPDACDNILARNVTWQECCCTVGEGWGSGCRIQQCPGTETAEYQSLCPHGRGYLAPSGDLSLRRDVDECQLFRDQVCKSGVCVNTAPGYSCYCSNGYYYHTQRLECIDNDECADEEPACEGGRCVNTVGSYHCTCEPPLVLDGSQRRCVSNESQSLDDNLGVCWQEVGADLVCSHPRLDRQATYTECCCLYGEAWGMDCALCPAQDSDDFEALCNVLRPPAYSPPRPGGFGLPYEYGPDLGPPYQGLPYGPELYPPPALPYDPYPPPPGPFARREAPYGAPRFDMPDFEDDGGPYGESEAPAPPGPGTRWPYRSRDTRRSFPEPEEPPEGGSYAGSLAEPYEELEAEECGILDGCTNGRCVRVPEGFTCRCFDGYRLDMTRMACVDINECDEAEAASPLCVNARCLNTDGSFRCICRPGFAPTHQPHHCAPARPRA
B5: recombinant N-terminal half of fibrillin-1 (domain or fragment)
chain: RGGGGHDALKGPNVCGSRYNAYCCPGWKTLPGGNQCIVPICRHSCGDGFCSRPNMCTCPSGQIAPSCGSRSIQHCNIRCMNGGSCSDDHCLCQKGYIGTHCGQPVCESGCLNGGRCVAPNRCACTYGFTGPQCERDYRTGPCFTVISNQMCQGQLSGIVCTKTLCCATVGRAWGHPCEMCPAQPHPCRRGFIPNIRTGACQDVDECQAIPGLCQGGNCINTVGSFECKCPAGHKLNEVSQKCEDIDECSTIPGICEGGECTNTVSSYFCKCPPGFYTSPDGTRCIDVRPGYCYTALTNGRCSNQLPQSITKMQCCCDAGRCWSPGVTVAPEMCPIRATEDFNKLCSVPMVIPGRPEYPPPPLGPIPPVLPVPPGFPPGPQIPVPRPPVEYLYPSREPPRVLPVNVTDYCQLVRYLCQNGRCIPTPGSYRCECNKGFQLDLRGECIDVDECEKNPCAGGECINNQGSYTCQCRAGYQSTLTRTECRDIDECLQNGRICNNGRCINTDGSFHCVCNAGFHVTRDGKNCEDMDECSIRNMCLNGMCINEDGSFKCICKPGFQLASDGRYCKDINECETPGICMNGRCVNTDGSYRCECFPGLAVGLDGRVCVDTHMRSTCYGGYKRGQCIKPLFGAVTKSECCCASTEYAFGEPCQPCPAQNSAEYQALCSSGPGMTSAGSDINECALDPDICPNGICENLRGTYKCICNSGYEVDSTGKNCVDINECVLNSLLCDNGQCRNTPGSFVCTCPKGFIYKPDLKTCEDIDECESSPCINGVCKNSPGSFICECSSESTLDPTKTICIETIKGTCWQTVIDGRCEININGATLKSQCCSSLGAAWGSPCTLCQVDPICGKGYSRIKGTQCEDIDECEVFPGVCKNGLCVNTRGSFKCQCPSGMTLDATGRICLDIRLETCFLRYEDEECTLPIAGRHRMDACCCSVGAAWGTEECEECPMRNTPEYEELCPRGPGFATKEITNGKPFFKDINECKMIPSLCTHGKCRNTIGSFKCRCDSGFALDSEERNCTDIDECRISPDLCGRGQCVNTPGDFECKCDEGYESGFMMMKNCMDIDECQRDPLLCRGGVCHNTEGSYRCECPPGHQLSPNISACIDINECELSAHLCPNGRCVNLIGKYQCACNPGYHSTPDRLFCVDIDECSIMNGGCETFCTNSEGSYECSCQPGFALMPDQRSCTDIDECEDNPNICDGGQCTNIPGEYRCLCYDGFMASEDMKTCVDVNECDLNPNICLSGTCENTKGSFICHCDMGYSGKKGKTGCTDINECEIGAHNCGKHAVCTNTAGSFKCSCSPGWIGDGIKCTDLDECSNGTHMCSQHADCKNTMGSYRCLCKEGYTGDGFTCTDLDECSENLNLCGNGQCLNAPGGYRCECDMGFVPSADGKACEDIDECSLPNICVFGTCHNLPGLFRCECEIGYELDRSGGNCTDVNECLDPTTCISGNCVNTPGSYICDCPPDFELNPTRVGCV
B6: fibulin-4 (natural protein)
chain: SASPQDSEEPDSYTECTDGYEWDPDSQHCRDVNECLTIPEACKGEMKCINHYGGYLCLPRSAAVINDLHGEGPPPPVPPAQHPNPCPPGYEPDDQDSCVDVDECAQALHDCRPSQDCHNLPGSYQCTCPDGYRKIGPECVDIDECRYRYCQHRCVNLPGSFRCQCEPGFQLGPNNRSCVDVNECDMGAPCEQRCFNSYGTFLCRCHQGYELHRDGFSCSDIDECSYSSYLCQYRCINEPGRFSCHCPQGYQLLATRLCQDIDECESGAHQCSEAQTCVNFHGGYRCVDTNRCVEPYIQVSENRCLCPASNPLCREQPSSIVHRYMTITSERSVPADVFQIQATSVYPGAYNAFQIRAGNSQGDFYIRQINNVSAMLVLARPVTGPREYVLDLEMVTMNSLMSYRASSVLRLTVFVGAYTF
B7: fibrillin-1 centre region fragment rF1M (domain or fragment)
chain: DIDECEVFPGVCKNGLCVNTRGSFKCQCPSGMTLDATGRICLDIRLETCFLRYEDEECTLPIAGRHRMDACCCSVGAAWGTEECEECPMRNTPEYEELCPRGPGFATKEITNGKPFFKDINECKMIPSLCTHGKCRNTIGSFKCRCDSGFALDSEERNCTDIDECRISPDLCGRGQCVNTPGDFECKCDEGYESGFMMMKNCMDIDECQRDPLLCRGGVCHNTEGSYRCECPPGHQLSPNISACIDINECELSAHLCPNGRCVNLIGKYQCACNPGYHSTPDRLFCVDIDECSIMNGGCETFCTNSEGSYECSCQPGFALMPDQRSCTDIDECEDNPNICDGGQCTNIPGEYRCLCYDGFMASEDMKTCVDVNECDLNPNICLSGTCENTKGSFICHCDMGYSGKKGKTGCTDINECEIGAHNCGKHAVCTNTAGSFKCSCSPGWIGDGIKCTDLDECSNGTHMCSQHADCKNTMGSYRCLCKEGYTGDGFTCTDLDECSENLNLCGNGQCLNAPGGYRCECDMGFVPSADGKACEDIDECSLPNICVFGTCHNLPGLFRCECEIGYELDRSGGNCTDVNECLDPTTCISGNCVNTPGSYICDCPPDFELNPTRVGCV
modifications: limits not printed (cited paper); approximate centre region, set at calcium-binding EGF domain boundaries from the domain before TB4 to the one before TB5; Ca2+ bound, HEK-type glycosylation and disulphides likely
B8: recombinant human tropoelastin (natural protein)
chain: GGVPGAIPGGVPGGVFYPGAGLGALGGGALGPGGKPLKPVPGGLAGAGLGAGLGAFPAVTFPGALVPGGVADAAAAYKAAKAGAGLGGVPGVGGLGVSAGAVVPQPGAGVKPGKVPGVGLPGVYPGGVLPGARFPGVGVLPGVPTGAGVKPKAPGVGGAFAGIPGVGPFGGPQPGVPLGYPIKAPKLPGGYGLPYTTGKLPYGYGPGGVAGAAGKAGYPTGTGVGPQAAAAAAAKAAAKFGAGAAGVLPGVGGAGVPGVPGAIPGIGGIAGVGTPAAAAAAAAAAKAAKYGAAAGLVPGGPGFGPGVVGVPGAGVPGVGVPGAGIPVVPGAGIPGAAVPGVVSPEAAAKAAAKAAKYGARPGVGVGGIPTYGVGAGGFPGFGVGVGGIPGVAGVPGVGGVPGVGGVPGVGISPEAQAAAAAKAAKYGAAGAGVLGGLVPGAPGAVPGVPGTGGVPGVGTPAAAAAKAAAKAAQFGLVPGVGVAPGVGVAPGVGVAPGVGLAPGVGVAPGVGVAPGVGVAPGIGPGGVAAAAKSAAKVAAKAQLRAAAGLGAGIPGLGVGVGVPGLGVGAGVPGLGVGAGVPGFGAGADEGVRRSLSPELREGDPSSSQHLPSTPSSPRVPGALAAAKAAKYGAAVPGVLGGLGALGGVGIPGGVVGAGPAAAAAAAKAAAKAAQFGLVGAAGLGGLGVGGLGVPGVGGLGGIPPAAAAKAAKYGAAGLGGVLGGAGQFPLGGVAARPGFGLSPIFPGGACLGKACGRKRK

Target: T1, Microfibril-associated glycoprotein 4
Test: SPR; Ca2+

Row | Kd [nM] | Binder
1 | 19 | B1

Target: T1, Microfibril-associated glycoprotein 4
Test: SPR; -Ca2+

Row | Kd [nM] | Binder
2 | 3400 | B2
3 | 22 | B3
4 | 20 | B4

These binders were tested against MFAP4_(C34S) (human, UniProt P55083 22-255, C34S) (assay: SPR; +Ca2+).

Row | Kd [nM] | Binder
5 | 19 | B3
6 | 1.5 | B5
7 | 15 | B4
8 | 90 | B6
9 | 1 | B7
10 | 38 | B8

Reference: article PMC11091212 (2024)
